Experimental data published in patent US20100260765A1 (AstraZeneca / MedImmune, published 2010).
Numbering of substitutions follows the chain as printed.

B1: 31E11 (antibody, V domains shown)
VH: QVQLVESGGGLVKPGGSLRLSCAASGFTFSDYYMSWIRQAPGKGLEWVSYISISGSTIYYADSVKGRFTISRDNAKNSLYLQMNSLRAEDTAVYYCARDDFWSGYYFNWFDPWGQGTLVTVSS
VL: DIQMTQSPSSLSASVGDRVTITCRANQTISTFLNWYQQNPGKAPKLLIYAASSLQSGVPSRFSGSGSGTDFTLTISSLQPEDFATYYCQQTYIIPLTFGGGTKVEIK
B2: 33E1 (antibody, V domains shown)
VH: QVQLQESGPGLVKPSQTLSLTCTVSGGSISSGDHYWSWIRQHPGKGLEWIGHIYYSGSTDYNPSLKSRVTISVDTSKNHFSLKLNSVTAADTAVYYCARTNSSSWSDWYFDLWGRGTLVTVSS
VL: DIVMTQSPDSLAVSLGERATINCKSSQSILYSSNNKNYLAWYQRKPGQPPILLIHWASTRESGVPDRFSGSGSRTDFTLTISSLQAEDVAVYYCQQYFITPWTFGQGTKVEIK
B3: 32C11 (antibody, V domains shown)
VH: EVQLLESGGTLVQPGGSLRLSCAASGFTFSNYAMSWVRQAPGKGLEWVSAISGRAGSTYYADSVKGRFTISRDNSKNTLFLQMNSLRAEDTAVYYCAKASGDDWGQGTLVTVSS
VL: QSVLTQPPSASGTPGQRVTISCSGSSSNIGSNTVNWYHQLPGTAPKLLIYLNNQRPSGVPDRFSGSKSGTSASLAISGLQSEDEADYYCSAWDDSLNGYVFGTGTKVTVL
B4: 24B3 (antibody, V domains shown)
VH: EVQLVESGGGLVKPGGSLRLSCAASGFTFSTYSMNWVRQAPGKGLEWVSFISGRSSYIYYADSVKGRFTISRDNAKNSLYLQMNSLRAEDTAVYYCSKDDWFEELWGQGTLVTVSS
VL: DIQMTQSPSSLSASVGDRVTITCRASQGIRSDLGWYQQKPGKAPKRLIYATSSLQSGVPSRFSGSGSGTEFTLTISSLQPEDFATYYCLQHNRYPWTFGQGTKVEIK
B5: 24C9 (antibody, V domains shown)
VH: B4 VH
VL: B4 VL with S31N, S52F

Tests used:
Assay in all cases: cell-based or functional assay
KDR [1] = target: T1, KDR (human, UniProt P35968 20-1356)
T1 sequence (P35968 20-1356): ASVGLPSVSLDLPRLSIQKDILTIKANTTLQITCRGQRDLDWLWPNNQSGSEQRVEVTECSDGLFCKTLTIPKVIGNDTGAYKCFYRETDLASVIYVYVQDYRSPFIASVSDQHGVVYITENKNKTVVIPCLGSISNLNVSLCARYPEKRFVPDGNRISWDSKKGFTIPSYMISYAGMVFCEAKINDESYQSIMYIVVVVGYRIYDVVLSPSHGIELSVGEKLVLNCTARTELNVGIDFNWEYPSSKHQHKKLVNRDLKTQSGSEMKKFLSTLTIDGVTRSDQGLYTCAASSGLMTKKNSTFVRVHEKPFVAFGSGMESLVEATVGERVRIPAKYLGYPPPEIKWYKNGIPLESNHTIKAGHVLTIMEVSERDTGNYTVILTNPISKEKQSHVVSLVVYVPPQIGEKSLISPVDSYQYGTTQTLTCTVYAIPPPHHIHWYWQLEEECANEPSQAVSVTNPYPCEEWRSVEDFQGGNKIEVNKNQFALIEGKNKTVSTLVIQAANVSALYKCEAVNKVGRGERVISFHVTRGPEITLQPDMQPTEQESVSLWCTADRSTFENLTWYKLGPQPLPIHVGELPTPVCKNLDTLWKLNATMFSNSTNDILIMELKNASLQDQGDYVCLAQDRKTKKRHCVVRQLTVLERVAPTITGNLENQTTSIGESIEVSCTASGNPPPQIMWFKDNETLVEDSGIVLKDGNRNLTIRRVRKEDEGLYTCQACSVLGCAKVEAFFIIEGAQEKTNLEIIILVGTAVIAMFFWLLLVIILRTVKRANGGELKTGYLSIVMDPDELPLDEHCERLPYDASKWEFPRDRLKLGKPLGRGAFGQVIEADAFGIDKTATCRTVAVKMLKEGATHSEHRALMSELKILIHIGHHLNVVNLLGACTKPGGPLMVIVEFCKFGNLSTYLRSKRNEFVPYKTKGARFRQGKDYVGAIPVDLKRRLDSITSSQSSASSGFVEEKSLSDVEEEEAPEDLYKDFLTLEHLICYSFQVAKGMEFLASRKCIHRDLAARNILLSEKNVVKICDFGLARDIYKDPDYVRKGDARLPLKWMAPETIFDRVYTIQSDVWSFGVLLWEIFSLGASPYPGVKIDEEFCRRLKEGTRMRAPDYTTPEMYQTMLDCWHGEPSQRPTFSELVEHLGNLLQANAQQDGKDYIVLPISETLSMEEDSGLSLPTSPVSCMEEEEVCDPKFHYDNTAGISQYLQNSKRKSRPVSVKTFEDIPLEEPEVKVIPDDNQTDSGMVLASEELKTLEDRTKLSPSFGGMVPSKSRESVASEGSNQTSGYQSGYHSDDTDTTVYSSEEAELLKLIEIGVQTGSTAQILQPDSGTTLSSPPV

KDR [2] = target: T1, KDR; remark: listed apart in the source
KDR [3] = target: T1, KDR; remark: listed apart in the source
KDR [4] = target: T1, KDR; remark: listed apart in the source
KDR [5] = target: T1, KDR; remark: listed apart in the source

| Binder | Activity at 133 nM (% Inhibition), 1-hour Pre-incubation at 4° C., Average (KDR [1]) [%] | Activity at 133 nM (% Inhibition), 1-hour Pre-incubation at 4° C., N = 1 (KDR [1]) [%] | Activity at 133 nM (% Inhibition), 1-hour Pre-incubation at 4° C., N = 2 (KDR [1]) [%] | Activity at 133 nM (% Inhibition), 24-hour Pre-incubation at 37° C., Average (KDR [2]) [%] | Activity at 133 nM (% Inhibition), 24-hour Pre-incubation at 37° C., N = 1 (KDR [2]) [%] | Activity at 133 nM (% Inhibition), 24-hour Pre-incubation at 37° C., N = 2 (KDR [2]) [%] | Activity at 133 nM Antibody Concentration (% Survival Inhibition), Average (KDR [3]) [%] | Activity at 133 nM Antibody Concentration (% Survival Inhibition), N = 1 (KDR [3]) [%] | Activity at 133 nM Antibody Concentration (% Survival Inhibition), N = 2 (KDR [3]) [%] | % of Max VEGF KDR pTyr Activity (at 133 nM antibody concentration), Average (KDR [4]) [%] | % of Max VEGF KDR pTyr Activity (at 133 nM antibody concentration), N = 1 (KDR [4]) [%] | % of Max VEGF KDR pTyr Activity (at 133 nM antibody concentration), N = 2 (KDR [4]) [%] | % Inhibition of VEGF165-mediated 6-keto Prostaglandin F1α release at 133 nM Antibody Concentration, Average (KDR [5]) [%] | % Inhibition of VEGF165-mediated 6-keto Prostaglandin F1α release at 133 nM Antibody Concentration, N = 1 (KDR [5]) [%] | % Inhibition of VEGF165-mediated 6-keto Prostaglandin F1α release at 133 nM Antibody Concentration, N = 2 (KDR [5]) [%] |
| --- | --- | --- | --- | --- | --- | --- | --- | --- | --- | --- | --- | --- | --- | --- | --- |
| B1 | 81 | 82 | 80 | 69 | 90 | 48 | 89 | 83 | 95 | 5 | 4 | 6 | 114 | 130 | 98 |
| B2 | 77 | 78 | 75 | 77 | 85 | 68 | 92 | 86 | 97 | 8 | 5 | 10 | 113 | 128 | 98 |
| B3 | 27 | 32 | 21 | 73 | 73 | 73 | -91 | -95 | -87 | 10 | 9 | 11 | 9 | 6 | 11 |
| B4 | 80 | 80 | 80 | 72 | 76 | 69 | 65 | 65 | 64 | 14 | 12 | 15 | 68 | 66 | 70 |
| B5 | 81 | 81 |  | 46 | 46 |  | 57 | 57 |  | 13 | 13 |  | 91 | 91 |  |
